Measurements: the supplement of paper PMC10567573

B1: LRRC45 (parent)
chain: FQTRQEMTSMSAELKMRAIQAEER

Variants of: B1
Assay: protein stability index of a GFP-peptide fusion (GPS, HEK-293T) (PSI 1-6); higher = more stable
Conditions: c terminus: a fixed tail appended
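Also: lentivirally expressed fusions sorted by FACS into six bins by GFP to DsRed ratio, PSI derived from sequencing read proportions per bin multiplied by bin number.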

Q: Which protein stability index does the source give for FQTRQEMTSMSAELKMRAIQAEWR [E23W] here?
A: 2.26

Q: For FQTRQEMTSMSAELKMRAIQAEYR [E23Y], which protein stability index is on record?
A: 2.88

Q: With FQTRQEMTSMSAELKMRAIQAEEA [R24A] as the variant, how does the protein stability index read?
A: 4.19

Q: Which protein stability index does the source give for FQTRQEMTSMSAELKMRAIQAEEC [R24C] here?
A: 3.4

Q: For FQTRQEMTSMSAELKMRAIQAEED [R24D], which protein stability index is on record?
A: 4.29

Q: With FQTRQEMTSMSAELKMRAIQAEEE [R24E] as the variant, how does the protein stability index read?
A: 4.5

Q: For FQTRQEMTSMSAELKMRAIQAEEF [R24F], which protein stability index is on record?
A: 3.19

Q: For FQTRQEMTSMSAELKMRAIQAEEG [R24G], which protein stability index is on record?
A: 4.18

Q: With FQTRQEMTSMSAELKMRAIQAEEH [R24H] as the variant, how does the protein stability index read?
A: 4.01

Q: Which protein stability index does the source give for FQTRQEMTSMSAELKMRAIQAEEI [R24I] here?
A: 3.94

Q: With FQTRQEMTSMSAELKMRAIQAEEK [R24K] as the variant, how does the protein stability index read?
A: 4.26

Q: Which protein stability index does the source give for FQTRQEMTSMSAELKMRAIQAEEL [R24L] here?
A: 4.05

Q: Which protein stability index does the source give for FQTRQEMTSMSAELKMRAIQAEEM [R24M] here?
A: 3.54

Q: For FQTRQEMTSMSAELKMRAIQAEEN [R24N], which protein stability index is on record?
A: 4.05

Q: For FQTRQEMTSMSAELKMRAIQAEEP [R24P], which protein stability index is on record?
A: 3.88

Q: For FQTRQEMTSMSAELKMRAIQAEEQ [R24Q], which protein stability index is on record?
A: 4.5

Q: With FQTRQEMTSMSAELKMRAIQAEES [R24S] as the variant, how does the protein stability index read?
A: 4.3

Q: For FQTRQEMTSMSAELKMRAIQAEET [R24T], which protein stability index is on record?
A: 3.96

Q: With FQTRQEMTSMSAELKMRAIQAEEV [R24V] as the variant, how does the protein stability index read?
A: 3.67

Q: With FQTRQEMTSMSAELKMRAIQAEEW [R24W] as the variant, how does the protein stability index read?
A: 2.85

Q: With FQTRQEMTSMSAELKMRAIQAEEY [R24Y] as the variant, how does the protein stability index read?
A: 3.71
